Results: the nanobody polyreactivity screen of Harvey et al. (2022)

Assay: yeast display, Sf9 membrane polyspecificity reagent, FACS + sequencing; frameworks hold sequencing errors
Method in brief: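 Using colony PCR, genes from sorted yeast display clones were amplified, then sequenced on MiSeq at 2 × 250 and filtered by CDR length. The clones had been stained with 10% biotinylated, detergent-solubilized Sf9 membrane reagent for 1 hour at 4 °C and sorted by FACS into low and high (top ~1%) gates on anti-HA and streptavidin fluorescence. Polyreactivity labels come from the gate of origin.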

Sequence	polyreactivity (PSR sort gate)
QVQLVESGGGLVQAGGSLRLSCAASGRIFSFNAMGWYRQAPGKERELVASGGSTYADSVKGRFTISRDNAKNTVYLQMNSLKPEETAVYYCAADPFYYFPSPFDYWGQGTQVTVSS	low polyreactivity
QVQLVESGGGLVQAGGSLRLSCAASGRTSYSNAMGWYRQAPGKERELVAAISGSGVRTYYADSVKGRFTISRDNAKNTVYLQMNSLKPEDTAVYYCAAAGRYPALYGYWGQGTQVTVSS	high polyreactivity
QVQLVESGGGLVQAGGSLLLSCAASGRIFYGNAMGWYRQAPGKERELVAPISSGTSTNYADSVKGRFTISRDNGKNTVYLQMNSLKPEDTAVYYCAAGSYSRYLYSLYFDFDYWGQGTQVTVSS	low polyreactivity
QVQLVESGGGLVQAGGSLRLSCAASGRTFYQYGMGWYRQAPGKERELVAAISDSGGGTYYADSVKGRFTISRDNAKHTVYLQMNSLKPEDTAVYFCAATYVGPRRRYYYWGQGTQVTVSS	high polyreactivity
QVQLVESGGGLVLAGVSLRLSCAASGSTFPYNAMGWYRQAPGKERELVAAITSRGGSTYYADSVKGRFTISRDNAKNTVYLQMNSLKPEDTAVYYCATPGDTYGWTRRRYYYWGQGTQVTVSS	high polyreactivity
QVLLVESGGGLVQAGGSLRLTCTPYGSIFGYYVMGRYRQPPGKEREFVAAISYGGGSTYYADSVKGRFTISRDNAKNTVYLQMNSLKPEETAVYYCNTDIYSDYVGEEYEYWGQGSQVTVSS	high polyreactivity
QVQLEESGGGLVQAGGSLRLSCAATGILRLNAIGWYRHAPGKEREFVATISRSGGITYYADSVKGRFTISRDNAKNTVYLQMNSLKPEDTAVYYCAKGGYSLYGYWGQGTQVTVSS	high polyreactivity
QVQLVESGGGLVQAGGSLRLSCAASGSTFLYNAMGWYRQAPGKERELVAAITIGGGSTYYADSVKGRFTISRDNAKNTVYLQMNSLKPEDTAVYYCNKGSYYWWDPGSTYIDDYWGQGTQVTVSS	low polyreactivity
QVQLVESGGGLVQAGGSLPLSCAASGSIVTDNAMGWYRQAPGKERELVAANTSSGNTNYADSVKGRFTISRDNAKNTVDLQMKSLKPEDTAVYYCAADSYYTHWTDWLPVGEDYWGQVTQVTVSS	low polyreactivity
QVQLVETAGGLVQAGGSLRLSCAASGSTIRYNVMGWYRQAPGKERELVAAITINGGSTNYADSVKGRFTISRDNAKNTVYLQMNSLKPEDTAVYYCAAAKSYRSGSWYEYWGQGTQVTVSS	high polyreactivity
QVQVVESGGGLVQPGGSLRLSCAASGSTFGGKAMGWYRQATGKERELVAGITSSGTSTYYADSVKGRFTISRDNAKNTVFLQMNSLKPEDTAVYYCATDEAVESYGFELFDYWGQGTQVTVSS	low polyreactivity
QVQLVESGGGLVQAGGSLRLSCAASGRTFRWYAMGWYRQAPGKERELVAAIRRSGGGTYYADSVKGRFTISRDNAKNTVYLQMNSLKPEDTAVYYCNTDYPVYQRGVISDGFDYWGQGTQVTVSS	low polyreactivity
QVQLVESGGGLVQAGGSLRLSCAASGSIFAFYAMGWYRQSPGKERELVAAISYNGGSTYYADSVKVRFTLSRDNAKNTVYLQMNSLEPEDTAVYYCAAYHFSAPSEYDYWGQGTQVTVSS	low polyreactivity
QVQLVESGGGLDQAGGSLRLSCAASGVNAMGWYRQAPGKEREFVAAITSIGGSTYYADSVKGRFTISRDNAKNTVYLQMNRLKPEDTAVYYCNPDSGPVKVSPLYESWGQGTQVTVSS	low polyreactivity
QVQLVESGGGLVQAGGSLRLSCAASGRTFDFYAMGWYRQAPGKERELVASNTFSTGSTTYADSVKGRFTISRDNAKITVYLQMNILKPEDTAVYYCAADGDCWWWSYVDRYDYWGQGTQVTVSS	low polyreactivity
QFQLVESRGGLVQAGGSLRLSCAASGFIFTHYAMGWYRQAPGKERELVAAITRRGGDTHYADSVKGRFTISRDNPKNTVYLQMNSLKPEDTAVYYSNAKRYSWGYYPAFDYWGHGTQVTVSS	high polyreactivity
QVQLVESGGGLVQAGGSLRLSCAASGRTLTYNVMGWYRQAPGKERELVASISSSGSSTHYADSVKGRFTISRDNAKNTVYLQMNSLKPEDTAVYYCAVEFWRPFWTRFDYWGQGTQVTVSS	high polyreactivity
QVQLVESGGGLVQAGGSLRLSCAASGSIFRSYAMGWYRQAPGKERELVAGISYSGGSTYYADSVKGRFTISRDNAKNTVYLQMNSLKPEDTAVYYCNTRTGAFFLSKPYDYWGQGTQVTVSS	low polyreactivity
QVQLVESGGGLVQAGGSLRLSCAASGITFYKYVMGWYRQAPGKEREFVAAITWSGDSTYADSVKGRFTISRDNAKNTVYLQMNSLKPEDTAVYYCAARTWSRRQREYDYWGQGTQVTVSS	high polyreactivity
QVQLVESGGGLVQAGGSLRLSCAASGSIFYVYAMGWYRQAPGKERELVAAITSSGTTNYADSVKGRFTISRDNAKNTVYLQMNSLKPEDTAVYYCAADAYSGAYFTYLGEIYDYWGQGTQVTVSS	low polyreactivity
QVQLVESGGGLVQAGGSLRLSCAASGRIFWAYTMGWYRQAPGKERELVAAITGSGGSTYYADSVKGRFTISRDNAKNTVYLQMNSLKPEDTAVYYCAADIGYIRLPRGREYDYWGQGTEVTVSS	high polyreactivity
QVQLVESGGGLVQAGGSLRLSCAASGSIFGGYGMGWYRQAPGKERELVAAITSGSSTYYADSVKGRFTISRDNAKNTVYLQMNSLKPEDTAVYNCAARPYPHSAYEGDYWGRGTQVTVSS	low polyreactivity

Sequence	polyreactivity (PSR sort gate)
QVQLQESGGGLVQAGGSLRLGCAASGNISDAGYMGWYRQAPGKEREFVAAIAAGSNTNYADSVKGRFTISRDNAINTVYLQMNSLKPEVTAVFYCAVASYARVQYEYWGQGTQVTVNS	low polyreactivity
QVQLVESAGGLVQAGVRLRLSCAASGRTFVCNAMGSYRQAPGKERELVADITWSGDITYYADSVKGRFTISRDNAKNTVYLQMNSLKPEDTAVYYCAADYHRRLTDYDYWGQGTQVTVSS	low polyreactivity
QFQLVESGGGLVQEGGSLRLSCAASGRTLAKNAMGWYRQAPGKEREFVAAISRRGGSTYYADSVKGRFTISRDYAKYTVYLQLNSLKREDTAVYYCARASRQGYYQLSYDEFDYWGQGTQVTVSS	high polyreactivity
QVQLVESGGGLVQAGGSLRLSCAASGFTFDANAMGWYRQAPGKERELVAAISWSGGSTYYADSVKGRFTISRDNAKNTVYLQMNSLKPEDTAVYYCAARRYSYVGGQGSDYWGQGTKVTVSS	high polyreactivity
QVQLVESGGGLVQAGGSLRLSCAATGRIFAYNTMGWYRQAPGKERELVAVITSGGSTNYADSVKGRFTISRDNAKNTVYLQMNSLNPEDTAVYYCAKRPYGRSGGSRYDYWGQGTQVTVSS	high polyreactivity
QVQLVESGGGLVQAGGSLRLSCAASGFTFSWYAMGWYRQAPGKERELVAAITRSGGSTNYADSVKGRFTISRDNAKNTVYLQMNSLKPEDTAVYYCNAAGYRRSTWWYDYWGQGTQVTVSS	high polyreactivity
QVQLVESGGGLVQAGGSLRLSCDASGRIFYNYAMGWYRQEPGKERELVAAISSSGGRTYYADSVKGRFTISRDKAKNTVYLQMNSLKPEDTAVYYCAADFHDASRPYGSWGQGTQVTVSS	low polyreactivity
QVHLVESGGGLVQAGGSLRLSCAASGSIFAYYAMGWYRQAPGKEWEVVAAINWRVGRTYYADSVNGRFTISRDNAKNTVYLQMNSLKPEDTAVYYCAAVYRNQYRGSRFDYWGQGTQVTVSS	high polyreactivity
QVQLVESGGGLVQAGGSLRLSCAASGIIFVENPMGWYRQAPGKERELVATITSGDTTNYADSVKGRFTISRDNAKNTVYLHMNSLKAEDTAVYYCAAERYEDFTEYDYWGQGTQVTVSS	low polyreactivity
QVQLVESGGGLVQAGASLRLSCAASGITFYSYGMGWYRQAPGKERELVAAISGSGTTTYADSVKGRFTISRDNAKNPVYLQMNSLKPEDTAVYYCAAVARYPRWHHYYWGQGTQVTVSS	low polyreactivity
QVQLVETWGGLVQAGGSLRLSCPASGSIFPRKAMGWYRQAPGKERELVAGISSGGSTNYADSVKGRFTISRDNAKNTVYLQMNSLKPEDTAVYYCAARQWIRNLGFGYSIYNYWGQGTQVTVSS	high polyreactivity
QVQLVESGGGLVQAGGSLRLSCAASGITFSHNAMGWYRQAPGKERELVAVIRWSGGRTYYADSVKGRFTISRDNAKNTVYLQMNSLKPEDTAVYYCAARPSTAFPYGKIMDYWGQGTQVTVSS	low polyreactivity
QVQLVESGGGLVQAVSSLRLSCAASGYIFDRNAMGWYRRAPGKERELVAAITKRGGITYYADSVKGRFTISRDNAKNTVYLQMNSLKPEDTAVYYCAAKTLYNSGTQDRAMGYWGQGTQVTVSS	high polyreactivity
QVQLVESGGGLVQAGGSLRLSSAASGFIFTWYAMGWYIQAPGKERELVAAISSSGGRTYYADSVKGRFTISRDNAKNTVYLQMNSLKPEDSAVYYCTAVKFIRQHSEYDYWGQGTLVTVSS	high polyreactivity
QVQLEESGGGLVQAGGSLRLSCAASGRIFAVNAMGGYRQAPGKERELVAAINGGGSTNYADSVKGRFTLSRDNAKNTVYLQMNSLKPADTAVYYCAADVGWRSQTRGYYWGQGTQVTVSS	high polyreactivity
QVQLVESGGGLVLAGGSLRLSGAASGRISGYNVLGWARQAAGKERELVAAISGSGGSTYYADSVKGRFTISRDNAKNTVYLQMNSLKPEDTADYYCGKATGYPYDYWGHGTQVTVSS	low polyreactivity
QVQLVESGGGLVQAGGSLRLSCAASGRTISYAMGWYRQAPGKERELVAAIRYRGGSTYYADSVKGRFTISRDNAKNTVYLQMNSQKPEDTAVYYCAAQDSYTPPILFRRGYLRYDYWGQGTQVTVSS	low polyreactivity
QVQLVESGGCLVQAGGSLRLSCAASGFTFSDNSMGWYRQAHGKERELVATISQSSGSTSYADSLKGRFTISRDNAKNTVYLQMNSLKPEDTAVYYCAKRRLFYWGLGTQVTVSS	low polyreactivity
QVQLVESGGGLVHAGGSLRLSCAASGSIFFHNAMGWYRQAPGKERELVAAISGGGSTTYADSVKGRFTISRDNAKNTVYLQMNSLKPEDTAVYYCAKSYRYYALHYSPGWYNYWGQGTQVTVSS	high polyreactivity
QVQLVDSGGGLVQAGGSLRLSCAASGRTFAYNVMGWYRQAPGKERELVAAISRGGGRTYYADSVKGRFTIARDNAKNTVYLQMNSLKPEDTAVYYCNAYLFFLNRVWSFDYWGQGTQVTVSS	high polyreactivity
QVQLVESGGGLVQAGGSLRLSCPASGRIFPRYAMGWYRPAPGKERELVARITRRGGITYYADSVKGRFTISRDNAQNTVYLEMNSLKPEDTAVYYCNVDYYRGGDFSYGYDYWGQGTQLTVSS	high polyreactivity
